Source: patent publication US9663570B2, “Single domain antibodies directed against KRAS” (SINGH MOLECULAR MEDICINE, LLC, priority 2014, dated 2017)
Where “and” joins values, the source holds several entries; their conditions need not be identical. Identical values can stand only once.

What was measured:
MDA-MB-231 cells = assay: MTT proliferation assay, MDA-MB-231; type: cell-based, human; settings: for Mean Absorbance (570 nM) ± S.E., Overall Mean: mean of 4 experiments; for Mean Growth Inhibition: individual experiments 1-4;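 for all read-outs here: cultures held at 37 °C in humidified 5% CO2, treated groups compared against vehicle-treated controls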
TNF-alpha = biological target: T1, TNF-alpha (Homo sapiens, UniProt P01375); assay: Inhibition of TNF-alpha cytotoxicity against U937 by anti-TNF-alpha sdAbs; type: cell-based; settings: constant dose of TNF-alpha at EC50
T1 construct: host or cells: added exogenously to U937 cells
T1 sequence (P01375 77-233 limits assumed): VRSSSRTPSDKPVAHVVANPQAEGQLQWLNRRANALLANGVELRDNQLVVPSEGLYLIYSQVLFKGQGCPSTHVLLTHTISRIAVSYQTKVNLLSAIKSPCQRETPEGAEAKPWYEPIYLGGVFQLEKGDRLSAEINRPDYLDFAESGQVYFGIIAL

B1: B.VHH14: second anti-STAT3 sdAb, named VHH14 (SEQ ID NO. 4) (protein)
VHH: QVQLVESGGGSVQAGGSLRLSCVASTYTGCMGWFRQAPGKEREGVAALSSRGFAGHYTDSVKGRFSISRDYVKNAVYLQMNTVKPEDAAMYYCAAREGWECGETWLDRTAGGHTYWGQGTLVTVSS
modifications: Camelid
MDA-MB-231 cells; Day 3, 10.0 μg/ml, individual experiments 1-4 (Table 6)
  Mean Absorbance (570 nM) ± S.E.: 0.456 ± 0.048 and 0.499 ± 0.018 and 0.502 ± 0.048 and 0.559 ± 0.041
MDA-MB-231 cells; Day 3, 10.0 μg/ml
  Mean Absorbance (570 nM) ± S.E., Overall Mean: 0.504 ± 0.021
MDA-MB-231 cells; Day 3, 100 μg/ml, individual experiments 1-4 (Table 6)
  Mean Absorbance (570 nM) ± S.E.: 0.255 ± 0.005 and 0.357 ± 0.019 and 0.308 ± 0.021 and 0.287 ± 0.021
MDA-MB-231 cells; Day 3, 100 μg/ml
  Mean Absorbance (570 nM) ± S.E., Overall Mean: 0.302 ± 0.043
MDA-MB-231 cells; Day 5, 10.0 μg/ml, individual experiments 1-4 (Table 7)
  Mean Absorbance (570 nM) ± S.E.: 0.640 ± 0.011 and 0.338 ± 0.023 and 0.930 ± 0.044 and 0.842 ± 0.052
MDA-MB-231 cells; Day 5, 10.0 μg/ml
  Mean Absorbance (570 nM) ± S.E., Overall Mean: 0.688 ± 0.131
MDA-MB-231 cells; Day 5, 100 μg/ml, individual experiments 1-4 (Table 7)
  Mean Absorbance (570 nM) ± S.E.: 0.549 ± 0.023 and 0.274 ± 0.032 and 0.578 ± 0.039 and 0.499 ± 0.036
MDA-MB-231 cells; Day 5, 100 μg/ml
  Mean Absorbance (570 nM) ± S.E., Overall Mean: 0.475 ± 0.0690
MDA-MB-231 cells; post 3 days, 10.0 μg/ml
  Mean Growth Inhibition: 23.1% and 20.0% and 38.5% and 23.3%
MDA-MB-231 cells; post 3 days, 100 μg/ml
  Mean Growth Inhibition: 57.0% and 42.8% and 62.3% and 60.6%
MDA-MB-231 cells; post 5 days, 10.0 μg/ml
  Mean Growth Inhibition: 5.5% and 25.9% and 5.4% and 22.9%
MDA-MB-231 cells; post 5 days, 100 μg/ml
  Mean Growth Inhibition: 18.9% and 39.9% and 41.2% and 54.3%

B2: anti-TNF-alpha VHH62: third anti-TNF-alpha sdAb (SEQ ID NO. 47) (protein)
VHH: QVQLVESGGGPVQAGETLRLSCTASGFTFAEADMGWYRQAPGHECELVSTITTEGITSEASSYYADSVRGRFTISRDNAKNMVYLQMNSLKPEDTAVYYCAPDPYAYSTYSDYCSWAQGTQGTLVTVSS
modifications: Camelid
TNF-alpha
  inhibition of killing of U937 by TNF-alpha: inhibit killing of U937 by TNF-alpha

B3: anti-TNF-alpha VHH69: second anti-TNF-alpha sdAb (SEQ ID NO. 46) (protein)
VHH: EVQLVESGGGSVLAGGSLRLSCVASGFTSRYNYMAWFRQAPGKEREGVATIGTASGSADYYGSVKDRFTISQDNAKNTVYLQMNSLKPEDTAMYYCAARTYGTISLTPSDYRYWGQGTLVTVSS
modifications: Camelid
TNF-alpha
  inhibition of killing of U937 by TNF-alpha: inhibit killing of U937 by TNF-alpha
